Laboratory results published in PMC2997501, “Different Residues on the Surface of the Methanothermobacter thermautotrophicus MCM Helicase Interact with Single- and Double-Stranded DNA” (Archaea, 2010).

B1: Methanothermobacter thermautotrophicus MCM protein, wild-type (enzyme, UniProt O27798 1-666, looked up)
chain: MMKTVDKSKTLTKFEEFFSLQDYKDRVFEAIEKYPNVRSIEVDYLDLEMFDPDLADLLIEKPDDVIRAAQQAIRNIDRLRKNVDLNIRFSGISNVIPLRELRSKFIGKFVAVDGIVRKTDEIRPRIVKAVFECRGCMRHHAVTQSTNMITEPSLCSECGGRSFRLLQDESEFLDTQTLKLQEPLENLSGGEQPRQITVVLEDDLVDTLTPGDIVRVTGTLRTVRDERTKRFKNFIYGNYTEFLEQEFEELQISEEDEEKIKELAGDPNIYEKIIRSTAPSIHGYREVKEAIALQLFGGTGKELDDKTRLRGDIHILIVGDPGIGKSQMLKYVSKLAPRGIYTSGKGTSGVGLTAAAVRDEFGGWSLEAGALVLGDKGNVCVDELDKMREEDRSAIHEALEQQTISIAKAGIMATLNSRCSVLAAANPKFGRFDSYKSIAEQIDLPSTILSRFDLIFVVEDKPDEEKDRELARHILKTHKEDHMPFEIDPELLRKYIAYARKNVRPVLTDEAMQVLEDFYVSMRASAADEDSPVPITARQLEALVRLSEASAKIKLKEHVEAEDARKAIKLSQACLKQVGYDPETGKIDIDKVEGRTPKSERDKFRLLLELIKEYEDDYGGRAPTNILITEMMDRYNVSEEKVEELIRILKDKGAIFEPARGYLKIV
notes: MCM helicase of Methanothermobacter thermautotrophicus, full-length enzyme, cloned in pET-21a (NdeI/XhoI); the text speaks of hexamers, dodecamers and filaments in equilibrium (cited work); also called wild-type enzyme; minichromosome maintenance helicase; source: E. coli DE3 codon plus cells, purified on a Ni-column
B2: Methanothermobacter thermautotrophicus MCM protein, Q176A mutant (enzyme, UniProt O27798 1-666, looked up)
chain: MMKTVDKSKTLTKFEEFFSLQDYKDRVFEAIEKYPNVRSIEVDYLDLEMFDPDLADLLIEKPDDVIRAAQQAIRNIDRLRKNVDLNIRFSGISNVIPLRELRSKFIGKFVAVDGIVRKTDEIRPRIVKAVFECRGCMRHHAVTQSTNMITEPSLCSECGGRSFRLLQDESEFLDTATLKLQEPLENLSGGEQPRQITVVLEDDLVDTLTPGDIVRVTGTLRTVRDERTKRFKNFIYGNYTEFLEQEFEELQISEEDEEKIKELAGDPNIYEKIIRSTAPSIHGYREVKEAIALQLFGGTGKELDDKTRLRGDIHILIVGDPGIGKSQMLKYVSKLAPRGIYTSGKGTSGVGLTAAAVRDEFGGWSLEAGALVLGDKGNVCVDELDKMREEDRSAIHEALEQQTISIAKAGIMATLNSRCSVLAAANPKFGRFDSYKSIAEQIDLPSTILSRFDLIFVVEDKPDEEKDRELARHILKTHKEDHMPFEIDPELLRKYIAYARKNVRPVLTDEAMQVLEDFYVSMRASAADEDSPVPITARQLEALVRLSEASAKIKLKEHVEAEDARKAIKLSQACLKQVGYDPETGKIDIDKVEGRTPKSERDKFRLLLELIKEYEDDYGGRAPTNILITEMMDRYNVSEEKVEELIRILKDKGAIFEPARGYLKIV
notes: MCM helicase of Methanothermobacter thermautotrophicus, derivative of the full-length enzyme; source: E. coli DE3 codon plus cells, purified on a Ni-column
B3: Methanothermobacter thermautotrophicus MCM protein, P210G mutant (enzyme, UniProt O27798 1-666, looked up)
chain: MMKTVDKSKTLTKFEEFFSLQDYKDRVFEAIEKYPNVRSIEVDYLDLEMFDPDLADLLIEKPDDVIRAAQQAIRNIDRLRKNVDLNIRFSGISNVIPLRELRSKFIGKFVAVDGIVRKTDEIRPRIVKAVFECRGCMRHHAVTQSTNMITEPSLCSECGGRSFRLLQDESEFLDTQTLKLQEPLENLSGGEQPRQITVVLEDDLVDTLTGGDIVRVTGTLRTVRDERTKRFKNFIYGNYTEFLEQEFEELQISEEDEEKIKELAGDPNIYEKIIRSTAPSIHGYREVKEAIALQLFGGTGKELDDKTRLRGDIHILIVGDPGIGKSQMLKYVSKLAPRGIYTSGKGTSGVGLTAAAVRDEFGGWSLEAGALVLGDKGNVCVDELDKMREEDRSAIHEALEQQTISIAKAGIMATLNSRCSVLAAANPKFGRFDSYKSIAEQIDLPSTILSRFDLIFVVEDKPDEEKDRELARHILKTHKEDHMPFEIDPELLRKYIAYARKNVRPVLTDEAMQVLEDFYVSMRASAADEDSPVPITARQLEALVRLSEASAKIKLKEHVEAEDARKAIKLSQACLKQVGYDPETGKIDIDKVEGRTPKSERDKFRLLLELIKEYEDDYGGRAPTNILITEMMDRYNVSEEKVEELIRILKDKGAIFEPARGYLKIV
notes: as for B2
B4: Methanothermobacter thermautotrophicus MCM protein, G211A mutant (enzyme, UniProt O27798 1-666, looked up)
chain: MMKTVDKSKTLTKFEEFFSLQDYKDRVFEAIEKYPNVRSIEVDYLDLEMFDPDLADLLIEKPDDVIRAAQQAIRNIDRLRKNVDLNIRFSGISNVIPLRELRSKFIGKFVAVDGIVRKTDEIRPRIVKAVFECRGCMRHHAVTQSTNMITEPSLCSECGGRSFRLLQDESEFLDTQTLKLQEPLENLSGGEQPRQITVVLEDDLVDTLTPADIVRVTGTLRTVRDERTKRFKNFIYGNYTEFLEQEFEELQISEEDEEKIKELAGDPNIYEKIIRSTAPSIHGYREVKEAIALQLFGGTGKELDDKTRLRGDIHILIVGDPGIGKSQMLKYVSKLAPRGIYTSGKGTSGVGLTAAAVRDEFGGWSLEAGALVLGDKGNVCVDELDKMREEDRSAIHEALEQQTISIAKAGIMATLNSRCSVLAAANPKFGRFDSYKSIAEQIDLPSTILSRFDLIFVVEDKPDEEKDRELARHILKTHKEDHMPFEIDPELLRKYIAYARKNVRPVLTDEAMQVLEDFYVSMRASAADEDSPVPITARQLEALVRLSEASAKIKLKEHVEAEDARKAIKLSQACLKQVGYDPETGKIDIDKVEGRTPKSERDKFRLLLELIKEYEDDYGGRAPTNILITEMMDRYNVSEEKVEELIRILKDKGAIFEPARGYLKIV
notes: as for B2
B5: Methanothermobacter thermautotrophicus MCM protein, D212N mutant (enzyme, UniProt O27798 1-666, looked up)
chain: MMKTVDKSKTLTKFEEFFSLQDYKDRVFEAIEKYPNVRSIEVDYLDLEMFDPDLADLLIEKPDDVIRAAQQAIRNIDRLRKNVDLNIRFSGISNVIPLRELRSKFIGKFVAVDGIVRKTDEIRPRIVKAVFECRGCMRHHAVTQSTNMITEPSLCSECGGRSFRLLQDESEFLDTQTLKLQEPLENLSGGEQPRQITVVLEDDLVDTLTPGNIVRVTGTLRTVRDERTKRFKNFIYGNYTEFLEQEFEELQISEEDEEKIKELAGDPNIYEKIIRSTAPSIHGYREVKEAIALQLFGGTGKELDDKTRLRGDIHILIVGDPGIGKSQMLKYVSKLAPRGIYTSGKGTSGVGLTAAAVRDEFGGWSLEAGALVLGDKGNVCVDELDKMREEDRSAIHEALEQQTISIAKAGIMATLNSRCSVLAAANPKFGRFDSYKSIAEQIDLPSTILSRFDLIFVVEDKPDEEKDRELARHILKTHKEDHMPFEIDPELLRKYIAYARKNVRPVLTDEAMQVLEDFYVSMRASAADEDSPVPITARQLEALVRLSEASAKIKLKEHVEAEDARKAIKLSQACLKQVGYDPETGKIDIDKVEGRTPKSERDKFRLLLELIKEYEDDYGGRAPTNILITEMMDRYNVSEEKVEELIRILKDKGAIFEPARGYLKIV
notes: as for B2
B6: Methanothermobacter thermautotrophicus MCM protein, V214A mutant (enzyme, UniProt O27798 1-666, looked up)
chain: MMKTVDKSKTLTKFEEFFSLQDYKDRVFEAIEKYPNVRSIEVDYLDLEMFDPDLADLLIEKPDDVIRAAQQAIRNIDRLRKNVDLNIRFSGISNVIPLRELRSKFIGKFVAVDGIVRKTDEIRPRIVKAVFECRGCMRHHAVTQSTNMITEPSLCSECGGRSFRLLQDESEFLDTQTLKLQEPLENLSGGEQPRQITVVLEDDLVDTLTPGDIARVTGTLRTVRDERTKRFKNFIYGNYTEFLEQEFEELQISEEDEEKIKELAGDPNIYEKIIRSTAPSIHGYREVKEAIALQLFGGTGKELDDKTRLRGDIHILIVGDPGIGKSQMLKYVSKLAPRGIYTSGKGTSGVGLTAAAVRDEFGGWSLEAGALVLGDKGNVCVDELDKMREEDRSAIHEALEQQTISIAKAGIMATLNSRCSVLAAANPKFGRFDSYKSIAEQIDLPSTILSRFDLIFVVEDKPDEEKDRELARHILKTHKEDHMPFEIDPELLRKYIAYARKNVRPVLTDEAMQVLEDFYVSMRASAADEDSPVPITARQLEALVRLSEASAKIKLKEHVEAEDARKAIKLSQACLKQVGYDPETGKIDIDKVEGRTPKSERDKFRLLLELIKEYEDDYGGRAPTNILITEMMDRYNVSEEKVEELIRILKDKGAIFEPARGYLKIV
notes: as for B2
B7: Methanothermobacter thermautotrophicus MCM protein, G218A mutant (enzyme, UniProt O27798 1-666, looked up)
chain: MMKTVDKSKTLTKFEEFFSLQDYKDRVFEAIEKYPNVRSIEVDYLDLEMFDPDLADLLIEKPDDVIRAAQQAIRNIDRLRKNVDLNIRFSGISNVIPLRELRSKFIGKFVAVDGIVRKTDEIRPRIVKAVFECRGCMRHHAVTQSTNMITEPSLCSECGGRSFRLLQDESEFLDTQTLKLQEPLENLSGGEQPRQITVVLEDDLVDTLTPGDIVRVTATLRTVRDERTKRFKNFIYGNYTEFLEQEFEELQISEEDEEKIKELAGDPNIYEKIIRSTAPSIHGYREVKEAIALQLFGGTGKELDDKTRLRGDIHILIVGDPGIGKSQMLKYVSKLAPRGIYTSGKGTSGVGLTAAAVRDEFGGWSLEAGALVLGDKGNVCVDELDKMREEDRSAIHEALEQQTISIAKAGIMATLNSRCSVLAAANPKFGRFDSYKSIAEQIDLPSTILSRFDLIFVVEDKPDEEKDRELARHILKTHKEDHMPFEIDPELLRKYIAYARKNVRPVLTDEAMQVLEDFYVSMRASAADEDSPVPITARQLEALVRLSEASAKIKLKEHVEAEDARKAIKLSQACLKQVGYDPETGKIDIDKVEGRTPKSERDKFRLLLELIKEYEDDYGGRAPTNILITEMMDRYNVSEEKVEELIRILKDKGAIFEPARGYLKIV
notes: as for B2
B8: Methanothermobacter thermautotrophicus MCM protein, PG210,211GA double mutant (enzyme, UniProt O27798 1-666, looked up)
chain: MMKTVDKSKTLTKFEEFFSLQDYKDRVFEAIEKYPNVRSIEVDYLDLEMFDPDLADLLIEKPDDVIRAAQQAIRNIDRLRKNVDLNIRFSGISNVIPLRELRSKFIGKFVAVDGIVRKTDEIRPRIVKAVFECRGCMRHHAVTQSTNMITEPSLCSECGGRSFRLLQDESEFLDTQTLKLQEPLENLSGGEQPRQITVVLEDDLVDTLTGADIVRVTGTLRTVRDERTKRFKNFIYGNYTEFLEQEFEELQISEEDEEKIKELAGDPNIYEKIIRSTAPSIHGYREVKEAIALQLFGGTGKELDDKTRLRGDIHILIVGDPGIGKSQMLKYVSKLAPRGIYTSGKGTSGVGLTAAAVRDEFGGWSLEAGALVLGDKGNVCVDELDKMREEDRSAIHEALEQQTISIAKAGIMATLNSRCSVLAAANPKFGRFDSYKSIAEQIDLPSTILSRFDLIFVVEDKPDEEKDRELARHILKTHKEDHMPFEIDPELLRKYIAYARKNVRPVLTDEAMQVLEDFYVSMRASAADEDSPVPITARQLEALVRLSEASAKIKLKEHVEAEDARKAIKLSQACLKQVGYDPETGKIDIDKVEGRTPKSERDKFRLLLELIKEYEDDYGGRAPTNILITEMMDRYNVSEEKVEELIRILKDKGAIFEPARGYLKIV
notes: as for B2

Target: the molecule itself
Experiment: SEC; 100 micrograms of protein on a superose-6 column (HR10/30); 20 mM Tris-HCl pH 7.5, 150 mM NaCl, 10% glycerol; 22°C, 0.2 ml/min; A280; size markers thyroglobulin, ferritin, albumin, ovalbumin
B1: binds.
B2: binds.
B3: binds.
B4: binds.
B5: binds.
B6: binds.
B7: binds.
B8: binds.
